Source: the supplement of paper PMC9170038

Tested on: MS2 coat protein
Test: apparent KD of MS2 coat protein; designed switch direction (-1 OFF switch, 1 ON switch): -1; higher = weaker reporter binding
Summary of the method: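 The apparent KD reported per design is the median over clusters of curve fits to normalised cluster fluorescence. The RNA switches were transcribed on Illumina chips by stalled E. coli RNA polymerase. SNAP-549-labelled MS2 coat protein was titrated from 0.7 or 1.5 nM, doubling up to 3 µM, in Tris-HCl pH 7.5 buffer containing KCl, MgCl2, BSA, DTT, tRNA and Tween-20, with no input, 200 uM small-molecule ligand, or an oligonucleotide input.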

[1] = input ligand: microRNA oligo, concentration not stated
[2] = Eterna round: R95, input ligand: microRNA oligo, concentration not stated
[3] = Eterna round: R95, input ligand: FMN 200 uM
[4] = Eterna round: R95, input ligand: none

Row | Sequence | apparent KD of MS2 coat protein (input ligand: FMN 200 uM) | apparent KD of MS2 coat protein [1] | apparent KD of MS2 coat protein (input ligand: none) | apparent KD of MS2 coat protein [2] | apparent KD of MS2 coat protein [3] | apparent KD of MS2 coat protein [4]
1 | GCGGACAAGAUGGCGACAUCAGAGACAUGAGGAUCACCCAUGUAGGAUAUCGAUUCGAAACGAAUCGAGAAGGGCAUAGUCCGC [JL denovo 34] (Eterna round: R96, puzzle: Exclusion NG 3) | 0.0147 µM | 0.0103 µM | 0.0167 µM |  |  | 
2 | GCGGACUUGAACGUGAGUUCAGAGACAUGAGGAUCACCCAUGUAGGAUAUCGAUUCGAAACGAAUCGAGAAGGGCAUAGUCCGC [JL denovo 13] (Eterna round: R96, puzzle: Exclusion NG 3) | 0.0233 µM | 0.0118 µM | 0.0161 µM |  |  | 
3 | GCGGAGAUCGUAUGAUAAUACAUGAGGAUCACCCAUGUGUAUACGAUGCAUGGUACCCGCCGCUUUGCUUGUCUUGC [Eternabot (L1) Solution 30] (Eterna round: R97, puzzle: Sensor, turn-off variant 1) | 0.0164 µM |  | 0.0167 µM |  |  | 
4 | GCGGCUGACGUCAGGAUAUCCGUACCGUAUGGGUGGGAGAAGGGACAUGAGGAUCACCCAUGUUAAUCUAUUAA [Eternabot (L1) Solution 45] (Eterna round: R97, puzzle: Brourd's mod of Exclusion 4) | 0.0627 µM |  | 0.0584 µM |  |  | 
5 | GCGUAGUAUGUAGGAUAUCGGUCAGUUUCUGAUCGAGAAGGACAUGAGGAUCACCCAUGUAAAACGUCCGGUUUCUGGAUACGC [JL ENG1 3.57] (Eterna round: R96, puzzle: Exclusion NG 1) | 0.0275 µM | 0.0163 µM | 0.023 µM |  |  | 
6 | GCUAGGCAUGUCAGGAUAUGCUGUACCUUGGUACAGCAGAAGGGACAUGAGGAUCACCCAUGUGCCAACCUAGC [JL-BMX4-4.02] (Eterna round: R97, puzzle: Brourd's mod of Exclusion 4) | 0.736 µM |  | 0.0559 µM |  |  | 
7 | GCUCCAGGAGGAUAUGCAUUCGAAAACAUGAGGAUCACCCAUGUAGGUGUCCUCGUGCGAGCAGAAGGCCUAAAAC [Rebebiso] (Eterna round: R97, puzzle: Exclusion 5) | 0.145 µM |  | 0.208 µM |  |  | 
8 | GCUGAUGCAGGAUAUAUAUGAAGCGUUCGAAUAGAAUGCGAACAUGAGGAUCACCCAUGUAGAAGGGCAUUGGC [Omei Ex 2, 1A] (puzzle: Exclusion 2) |  |  |  | 0.0139 µM |  | 
9 | GCUGCGCGAGGAUAUGCGGUUUGUGCUGUGGCCCGUGGCGUACAUGAGGAUCACCCAUGUAGAAGGCGUGUGGG [Apr-15 SS2-54] (puzzle: Exclusion 2) |  |  |  | 0.0225 µM |  | 
10 | GCUGGACGAGGAUAUACAAUCGUGCUUCGGCACGUAAGGUCACAUGAGGAUCACCCAUGUAGAAGGUGUCCAGC [E2/2-B2] (Eterna round: R97, puzzle: Exclusion 2) | 0.0548 µM |  | 0.0183 µM |  |  | 
11 | GCUGGUCGAGGAUAUACAAUCGUGCUUCGGCACGUAAGAUCACAUGAGGAUCACCCAUGUAGAAGGUGACCAGC [E2/1-B3] (Eterna round: R97, puzzle: Exclusion 2) | 0.118 µM |  | 0.0251 µM |  |  | 
12 | GCUUGUGGGCAAGGAUAUCCUACGUUGUUCUGGUUCGUGUCUGUCACAUGAGGAUCACCCAUGUGGGAGAAGGUGCAUUUGGUU [Design 60] (Eterna round: R96, puzzle: Exclusion NG 2) | 0.0154 µM | 0.0124 µM | 0.0172 µM |  |  | 
13 | GGAAAAAAAGUGAGGAUAUCCGGAGGGAAACCUCCGGAGAAGGCACAUGAGGAUCACCCAUGUAAAAAAAAAAA [AK-MS2ROC-r4-Bmoexclusion4-1] (Eterna round: R97, puzzle: Brourd's mod of Exclusion 4) | 0.0599 µM |  | 0.0305 µM |  |  | 
14 | GGAAAGCAAGGAUAUACAAGGAGACGAUGGAAAGUAGAGCGACAUGAGGAUCACCCAUGUAGAAGGUGCGAGAG [JR_Exclu2_Sub038] (puzzle: Exclusion 2) |  |  |  | 0.0391 µM | 0.0407 µM | 0.0348 µM
15 | GGAAAGGUAGGAUAUACGAAGAAAAAGGGUAGAAUAAUAACACAUGAGGAUCACCCAUGUAGAAGGACCAAAGC [Mat - Exclusion 2 - Mod of my Tesla design - D13] (puzzle: Exclusion 2) |  |  |  | 0.021 µM | 0.0495 µM | 0.0254 µM
16 | GGAAGGCGAGGAUAUACAAUAAAGAAAGGGAAAGACGUGAGACAUGAGGAUCACCCAUGUAGAAGGCGCGGAGA [AK-MS2ROC-r4-exclusion2-12] (Eterna round: R97, puzzle: Exclusion 2) | 0.0401 µM |  | 0.0324 µM |  |  | 
17 | GGAAGGUGAGGAUAUACAAAGACGGAAACGUCAGGUGAGAGACAUGAGGAUCACCCAUGUAGAAGGCACGGAGA [AK-MS2ROC-r4-exclusion2-16.1] (Eterna round: R97, puzzle: Exclusion 2) | 0.279 µM |  | 0.0744 µM |  |  | 

Row | Sequence | apparent KD of MS2 coat protein (input ligand: FMN 200 uM) | apparent KD of MS2 coat protein [1] | apparent KD of MS2 coat protein (input ligand: none) | apparent KD of MS2 coat protein [2] | apparent KD of MS2 coat protein [3] | apparent KD of MS2 coat protein [4]
18 | GGAAUGUAAGGAUAUCCGAAAAGCGAGCGAAAGCGAGCAAAGGAGAAGGUACAUGAGGAUCACCCAUGUAAGGG [AK-MS2ROC-r4-exclusion4-12] (Eterna round: R97, puzzle: Exclusion 4) | 0.0589 µM |  | 0.768 µM |  |  | 
19 | GGACGGAUAGGAUAUACAUGAGGAUCACCCAUGUGAACCCAGCAGAGGCUUCUUUGCAGUAGAAGGGUCCUUUA [Eternabot (Original) Solution 43] (Eterna round: R97, puzzle: Exclusion 3) | 0.0535 µM |  | 0.0475 µM |  |  | 
20 | GGAGAGAGAGGAUAUGGAGGAAAGAACAUGAGGAUCACCCAUGUAGAGCCUCAAGAUCGACCAGAAGGCUCAGUCC [AK-MS2ROC-r4-exclusion5-10] (Eterna round: R97, puzzle: Exclusion 5) | 0.15 µM |  | 0.0275 µM |  |  | 
21 | GGAGGACGAGCAGGAUAUUUUUACAUGAGGAUCACCCAUGUGUACUCAGGGUAAUCCUCCGCCGAAAAGAAGGGUUCGGAAGAA [JL ViennaUCT Socedi mod 4] (Eterna round: R96, puzzle: Exclusion NG 2) | 0.124 µM | 0.0416 µM | 0.0632 µM |  |  | 
22 | GGAUAAAGUCGAGGAUAUACGCACCACUAACGAGUAGAAGGCGAACAUGAGGAUCACCCAUGUGAGUUCUCAAUAAGAAACACG [Prohibition 69 - Jieux - Exclusion NG 1] (Eterna round: R96, puzzle: Exclusion NG 1) | 0.0541 µM | 0.0261 µM | 0.0371 µM |  |  | 
23 | GGAUCACAUGUCAGGAUAUGCUGGUCCUUGGAUCAGCAGAAGGGACAUGAGGAUCACCCAUGUCAUGAAGAUCC [Eli bmx4 4.80] (Eterna round: R97, puzzle: Brourd's mod of Exclusion 4) | 1.02 µM |  | 0.139 µM |  |  | 
24 | GGAUCGAAAGUGAGGAUAUACCACUGGAUACAGUGGUAGAAGGCACAUGAGGAUCACCCAUGUCCUUACGAUCC [Fiskers BMX 4 - 48] (puzzle: Brourd's mod of Exclusion 4) |  |  |  | 0.0205 µM |  | 
25 | GGAUCGAAUGUGAGGAUAUGCUGGUCCUUGGAUCAGCAGAAGGCACAUGAGGAUCACCCAUGUGACCAAGAUCC [Eli bmx4 4.73] (Eterna round: R97, puzzle: Brourd's mod of Exclusion 4) | 0.45 µM |  | 0.0441 µM |  |  | 
26 | GGAUCGAGUGUGAGGAUAUGCUGGUCCUUGGAUCAGCAGAAGGCACAUGAGGAUCACCCAUGUGAAGACGGUCC [Copy of R95 JL bmx4 3.16] (Eterna round: R97, puzzle: Brourd's mod of Exclusion 4) | 0.288 µM |  | 0.0386 µM |  |  | 
27 | GGAUCGAGUGUGAGGAUAUGCUGGUCCUUGGAUCAGCAGAAGGCACAUGAGGAUCACCCAUGUGAAGACGGUCC [JL bmx4 3.16] (Eterna round: R96, puzzle: Brourd's mod of Exclusion 4) |  | 0.0259 µM |  |  |  | 
28 | GGAUCGAGUGUGAGGAUAUGCUGGUCCUUGGAUCAGCAGAAGGCACAUGAGGAUCACCCAUGUGAAGACGGUCC [JL bmx4 3.16] (puzzle: Brourd's mod of Exclusion 4) |  |  |  | 0.0247 µM | 0.27 µM | 0.0258 µM
29 | GGAUCGAGUGUGAGGAUAUGCUGGUCGUAAGAUCAGCAGAAGGCACAUGAGGAUCACCCAUGUGAAAACGGUCC [Mat - Exclusion 4 - JL Mod - D72] (puzzle: Brourd's mod of Exclusion 4) |  |  |  | 0.0256 µM |  | 
30 | GGAUCUACUGAGGAUAUUAUAUCACCCGACUGAUAAGAAGGCAGUACAUGAGGAUCACCCAUGUGGGUAGCCAC [Polaris7] (Eterna round: R97, puzzle: Exclusion 6) | 0.0796 µM |  | 0.0994 µM |  |  | 
31 | GGCAAUAUGUAGGAUAUCGUAAUGGAAACAUUACGAGAAGGGCAAACAUGAGGAUCACCCAUGUUCCUUAAGCC [Mat - Exclusion 6 - Eli Mod - D69] (puzzle: Exclusion 6) |  |  |  | 0.015 µM | 0.0215 µM | 0.0184 µM
32 | GGCACACAUGAGGAUCACCCAUGUGAGGAUAUUAGGCGAUCGUCGAUAGACGAUAGCCUGAGAAGGCACAUGCC [Mat - Exclusion 1 - Eli Mod - D12] (Eterna round: R97, puzzle: Exclusion 1) | 0.0769 µM |  | 0.0206 µM |  |  | 
33 | GGCAGGCUUGAGGAUAUGCAUAGGCUAGGCCUAGCAGAAGGCAAGACAUGAGGAUCACCCAUGUGUUCCUUGUG [jl-ex6-4.35 ViennaUCT mod] (Eterna round: R97, puzzle: Exclusion 6) | 0.545 µM |  | 0.322 µM |  |  | 
34 | GGCAGUACAGAGGAUAUCUGGACCUACAGGAAUAGAGAAGGUUGUACAUGAGGAUCACCCAUGUCGACACUCAG [Eternabot (Original) Solution 11] (Eterna round: R97, puzzle: Exclusion 6) | 0.0132 µM |  | 0.0137 µM |  |  | 
